Test results from patent US5456909A, “Glycoform fractions of recombinant soluble complement receptor 1 (sCR1) having extended half-lives in vivo” (T Cell Sciences, Inc., priority 1992, dated 1995).
“And” between values parts separate entries of the source, which are not always exact repeats. Equal entries are not always repeated.

Key:
[1] = system: complement-mediated lysis of antibody coated SRBC; experiment: Inhibition of complement-mediated hemolysis of antibody-sensitized SRBC in vitro; format: cell-based, human; details: for IH50 (concentration giving 50% inhibition of hemolysis): SRBC, human serum as complement source; for antihemolytic potency comparison, in words: in vitro
Method: SRBC presensitized with rabbit anti-SRBC antibody (Diamedix, Miami, Fla.) were mixed in a V-bottom microtiter wells (Costar, Cambridge, Mass.) with an appropriate dilution of the test plasma and an aliquot of diluted human serum as a complement source. After incubation, 37° C., 1 hour, the unlysed red cells were pelleted by centrifugation, the supernatant transferred to corresponding flat bottom microwells (Costar, Cambridge, Mass.), and absorbance at 415 nm measured. Inhibition of complement-mediated lysis of the antibody coated SRBC was measured as a reduction in the absorbance in the presence of test sample.
A range of dilutions of TP10HD or TP10HD glycoform spanning 7.8 to 1000 ng/ml was examined for each sample.

[2] = Pharmacokinetic studies 6 and 8: iv TP10HD-CCW and TP10HD-CCS in rabbits, radiometric and immunoassay; format: in vivo, Dutch rabbits; details: 1 mg/kg
Method: In Studies 6 and 8, iodination was performed by the iodogen method (Fraker et al., 1978, Biochem Biophys Res Commun 80:849); the average degree of ^125 I substitution was 0.56 atoms/molecule of protein resulting in a specific activity of 22.7 kBq/mg for STUDY 6, and the average degrees of ^125 I substitution was 0.76 atoms/molecule of protein resulting in a specific activity of 29.5 kBq/mg for STUDY 8.
Studies 6 and 8: As described in STUDY 2 except that the radioiodinated TP10HD-CCW was added to ~1% w/w.
In Studies 6 and 8, test material was injected iv into a group of 5 Dutch rabbits (approximately 1 kg) at a dose of 1 mg/kg. Blood samples, 1 ml, were taken from an ear artery immediately predosing and at 5, 10, 20, 30, 60, 120 and 180 minutes, mixed with heparin, and radioactivity determined in an aliquot by scintillation counting after precipitation with trichloroacetic acid.
Plasma samples were analyzed for residual test material by an enzyme immunoassay (EIA) specific for TP10HD. Pharmacokinetic half-life was calculated from both the radiometric and immunoassay data.
Precipitation with trichloroacetic acid was performed as follows: Plasma (20 μl) was precipitated by sequential addition of 450μl of 0.13M Tris HCl, 4% SDS, 10% glycerol, pH 6.8 buffer, followed by 30 μl of fetal bovine serum and 500μl of 20% trichloroacetic acid. After each addition, the tubes were vigorously mixed and incubated for […] at 4° C.; the pellets of precipitable protein were collected by centrifugation at 1000×g for 10 minutes, the supernatants removed and discarded, and the residual radioactivity measured by scintillation counting.
A commercially available assay was utilized (Cellfree® CD35, T Cell Diagnostics, Inc. Cambridge, Mass.). In brief, polystyrene beads coated with polyclonal rabbit anti-TP10HD antibodies were simultaneously incubated with the diluted test sample and a horse radish peroxidase-conjugated polyclonal rabbit anti-TP10HD antibody. Following incubation, the beads were removed from the reaction mixture, washed of nonspecifically bound material, and subsequently incubated in the presence of an appropriate dilution of substrate. Color development was terminated by the addition of sulfuric acid and the absorbance (optical density) determined as a measure of TP10HD concentration.

[3] = Pharmacokinetic studies 1, 4, 5, 7, 9: iv clearance of 125I-labelled TP10HD preparations in rats; format: in vivo, Sprague-Dawley rats; details: 1 mg/kg
Method: In Studies 1, 2, 4, 5, 7 and 9, Iodination was carried out by the chloramine-T procedure. Sodium phosphate buffer, 0.5M, pH 7.6, 50 μl, was added to 1 mCi of Na-^125 I (New England Nuclear, Boston, Mass.) as supplied. The sample of TP10HD, typically 100 μg in 100 μl (Study 5=69 μg; Study 7=34 μg; Study 9=91 μg), was added followed by 50 μl of a 15 mg/ml solution of freshly prepared chloramine-T. The reaction mixture was vigorously shaken for 60 seconds. Sodium metabisulfite (50 μl, 15 mg/ml) and sodium iodide (100 μl, 10 mg/ml) were successively pipetted into the reaction vial. The reaction mixture was passed onto a PD10 column (Pharmacia Fine Chemicals, Piscataway, N.J.), pre-equilibrated with phosphate buffered saline, pH 7.2-7.4, containing 0.1% bovine serum albumin (Sigma Chemical Company, St. Louis, Mo.). Ten 0.5 ml fractions were collected and 2 μl aliquots were counted directly and after combining with 100 μl of a 0.1% bovine serum albumin solution and 1 ml of 20% trichloroacetic acid. After incubation at 0° C. for 1 hour, the acid-precipitable protein associated radioactivity was collected by centrifugation for 10 minutes at 1000×g and quantitated by scintillation counting. Fractions containing >90% of the total radioactivity in the acid precipitate were pooled for further use.
Study 1: Radioiodinated TP10HD-CX was mixed with purified unlabeled TP10HD-CX to yield a dosing solution suitable for administering a 1 mg/kg total TP10HD dose containing 16-25×10^6 cpm of radiolabeled TP10HD-CX.
Study 4: Radioiodinated TP10HD-CC was mixed with purified unlabeled TP10HD-CC to yield a dosing solution suitable for administering a 1 mg/kg or a 3 mg/kg total TP10HD dose containing ~20×10^6 cpm.
Study 5: Radioiodinated TP10HD-CCW was mixed with purified unlabeled TP10HD-CCW to yield a dosing solution suitable for administering a 1 mg/kg total TP10HD dose containing ~20×10^6 cpm.
Study 7: Radiolabeled TP10HD-CCS was mixed with purified unlabeled TP10HD-CCS to yield a dosing solution suitable for administering a 1 mg/kg total TP10HD dose containing ~20×10^6 cpm.
Study 9: Radioiodinated TP10HD-CXD was mixed with purified unlabeled TP10HD-CXD to yield a dosing solution suitable for administering a 1 mg/kg total TP10HD dose containing ~20~10^6 cpm.
In Studies 1, 4, 5, 7 and 9, test material was injected intravenously (iv) into four Sprague-Dawley rats (2 male, 2 female). Blood samples were obtained from the retroorbital plexus at 1, 3, 5, 10, 20, 30, 45, and 60 minutes post injection, and the radioactivity determined. Additional post infusion blood samples were taken at 2, 3, and 4 hours postinjection (STUDY 4) and at 120 minutes (STUDY 5). The plasma fraction of the remaining blood sample was retained for further analysis.
Plasma samples were analyzed for residual test material by measuring:
(1) total residual radioactivity;
(2) percentage of radiolabeled material precipitated with TCA;
(3) residual acid precipitable radioactivity in the presence of SDS; and
(4) material immunologically identifiable in an enzyme immunoassay as TP10HD.
Radioisotope data was quantitated as total cpm/ml blood or plasma and as the percentage of a theoretical time zero value. Pharmacokinetic half-life was calculated from the radiometric data.
In Study 9, removal of N-linked oligosaccharide chains was performed by n-glycanase digestion, performed according to manufacturer's instructions (Genzyme Corporation, Boston, Mass.). Typically, 58 μg TP10HD-CX was incubated with 10.5 units of n-glycanase for 18 hours, 37° C., in 0.2M sodium phosphate, pH 8.6 buffer.
Precipitation with trichloroacetic acid was performed as follows: Plasma (20 μl) was precipitated by sequential addition of 450μl of 0.13M Tris HCl, 4% SDS, 10% glycerol, pH 6.8 buffer, followed by 30 μl of fetal bovine serum and 500μl of 20% trichloroacetic acid. […]

Substance	IH50 (concentration giving 50% inhibition of hemolysis) [1] [ng/mL]	antihemolytic potency comparison, in words [1]	% dose cleared, α-phase ([2]; immunoassay data) [%]	% dose cleared, β-phase ([2]; immunoassay data) [%]	Serum half-life, α-phase ([2]; immunoassay data) [h]	Serum half-life, β-phase ([2]; immunoassay data) [h]	Total Clearance ([2]; immunoassay data) [mL/min/kg]	% dose cleared, β-phase ([2]; radiometric data)	Peak (t = O) concentration ([2]; radiometric data) [µg/mL]	Serum half-life, β-phase ([2]; radiometric data)	Total Clearance ([2]; radiometric data)	Volume of Distribution, α-phase ([2]; radiometric data) [L/kg]	Volume of Distribution, β-phase ([2]; radiometric data)	α phase half-life [3] [h]	β phase half-life [3] [h]
TP10HD-CCS: the strongly cationic form of TP10HD-CC isolated by preparative HPLC cation exchange chromatography	~27	no basis for concluding that TP10HD-CC, TP10HD-CCW and TP10HD-CCS differ in their potency	73	27	0.167	1.27	1.24	25.5 ± 1.5% and ~25%	14.6 ± 1.0	3.6 h and 3.608 ± 0.613 h	0.85 ± 0.12 mL/min/kg and 0.85 mL/min/kg	0.0698 ± 0.0048	162.0 ± 13.9 ml/kg and ~ 162 ml/kg	0.111	2.22
TP10HD-CCW: the weakly cationic form of TP10HD-CC isolated by preparative HPLC cation exchange chromatography	44	no basis for concluding that TP10HD-CC, TP10HD-CCW and TP10HD-CCS differ in their potency	30	70	0.233	6.27	0.1	69.1 ± 1.9% and ~70%	17.8 ± 0.3	3.6 h and 3.61 ± 0.313 h	0.26 ± 0.02 mL/min/kg and 0.26 mL/min/kg	0.0562 ± 0.001	22.6 ± 1.9 ml/kg and ~ 23 ml/kg	0.2035	1.67
